pKd: −log10 of the molar value.

Assay [1] deals with Human erythropoietin (Epoetin β) (human) (UniProt P01588). Put plainly: SPR; EPO immobilised by amine coupling on a ProteOn GLH chip (up to 3 000 RU); S100 or CaM as analyte (0.25–4 μM); 25 °C; 10 mM HEPES, 150 mM NaCl, 0.05% TWEEN 20, pH 7.4, 1 mM CaCl2; heterogeneous ligand model, values averaged over analyte concentrations (n = 5). In general terms: SPR reads the build-up and loss of mass on a sensor chip optically.

The target of another assay is S100P (Homo sapiens) (UniProt P25815). The conditions noted are these: cited from earlier work.
Chain of S100P (Homo sapiens) (P25815 whole entry): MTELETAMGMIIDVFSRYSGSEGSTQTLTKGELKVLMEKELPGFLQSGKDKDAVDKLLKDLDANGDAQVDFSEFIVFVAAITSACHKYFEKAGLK
The target in assay [2] is S100P (monomeric) (Homo sapiens) (UniProt P25815). The settings on record: cited from earlier work.
Chain of S100P (monomeric) (Homo sapiens) (P25815 whole entry): as above

Chain of Human S100A2 protein (P29034 4-98): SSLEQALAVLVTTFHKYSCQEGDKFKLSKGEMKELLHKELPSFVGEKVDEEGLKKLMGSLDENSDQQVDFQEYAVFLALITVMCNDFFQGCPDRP
Chain of S100P (P25815 whole entry): as the sequence (P25815 whole entry) above
Chain of interleukin 11 (P20809 22-199): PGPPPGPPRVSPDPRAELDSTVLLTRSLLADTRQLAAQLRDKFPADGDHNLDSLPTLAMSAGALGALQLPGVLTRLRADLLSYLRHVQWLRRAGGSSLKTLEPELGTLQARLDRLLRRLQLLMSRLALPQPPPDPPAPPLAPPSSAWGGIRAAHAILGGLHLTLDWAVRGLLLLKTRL

In assay [1], “Human S100A2 protein (from UniProt P29034 4-98) (natural protein)” came in with a Kd1 (heterogeneous ligand model, ligand population L1) of 81 nM; a Kd2 (heterogeneous ligand model, ligand population L2) of 1.2 µM; a ka1 (heterogeneous ligand model, ligand population L1) of 2200 M⁻¹ s⁻¹; a ka2 (heterogeneous ligand model, ligand population L2) of 10000 M⁻¹ s⁻¹. In assay [1], this substance returned a kd1 (heterogeneous ligand model, ligand population L1) of 0.00018 s⁻¹ and a kd2 (heterogeneous ligand model, ligand population L2) of 0.012 s⁻¹.

The pKd is the Kd on a negative log10 scale, so that one unit is a factor of ten. Turning to S100P (from UniProt P25815), in the assay with S100P (Homo sapiens), the pKd was 7.19.

Consider interleukin 11 (from UniProt P20809), for which the pKd in assay [2] was 9.00.

These data come from paper PMC8773746.
